Experimental data taken from patent US8889621B2, “Inhibiting binding of FGF23 to the binary FGFR-Klotho complex for the treatment of hypophosphatemia” (New York University, priority 2009, dated 2014).
“Also recorded” adds a separate entry of the source. Peptide text beside a SMILES is read from it.

Columns and labels:
[1] = test system: Hyp mice; assay: Urine and serum phosphate in Hyp mice after IP injection; format: in vivo, mouse; conditions: vs vehicle; for serum phosphate: IP, FGF23^180-251 1 mg or FGF23^180-205 860 μg
Source text: The anti-phosphaturic activity of FGF23 C-terminal peptides was examined in normal Sprague-Dawley rats and in Hyp mice, a mouse model of human X-linked hypophosphatemia (XLH) (Beck et al., “Pex/PEX Tissue Distribution and Evidence for a Deletion in the 3′ Region of the Pex Gene in X-linked Hypophosphatemic Mice,” J Clin Invest 99(6):1200-1209 (1997), Eicher et al., “Hypophosphatemia: Mouse Model for Human Familial Hypophosphatemic (Vitamin D-resistant) Rickets,” Proc Natl Acad Sci USA 73(12):4667-4671 […], Strom et al., “Pex Gene Deletions in Gy and Hyp Mice Provide Mouse Models for X-linked Hypophosphatemia,” Hum Mol Genet. 6(2):165-171 (1997), which are hereby incorporated by reference in their entirety). The animals were fed a complete, fixed formula diet containing 0.94% phosphate. Anesthetized rats (220-250 g body weight) were administered IV either FGF23^28-251 (0.1 μg kg body weight^−1) or FGF23^180-251 (0.1 μg kg body weight^−1) or vehicle. Before and 3 h after the injection, blood was drawn from the carotid artery and urine was collected through bladder catheterization. Plasma and urine chemistry of animals were analyzed using Vitros Chemistry Analyzer (Ortho-Clinical Diagnosis). 10- to 15-week old Hyp mice were fasted for 8-12 h before administering IP either FGF23^180-251 (1 mg) or FGF23^180-205 (860 μg) or vehicle. Before and 2 h, 4 h, 8 h, and 24 h after the injection, urine and serum samples were collected. Phosphate concentrations in urine and serum were determined using Phosphorus Liqui-UV Test (Stanbio Laboratory), and urine creatinine levels were measured using DetectX™ Urinary Creatinine Detection Kit (LuminosAssays).

[2] = test system: NaPi-2A; assay: NaPi-2A protein abundance in apical brush border membrane of rat kidney; format: in vivo; conditions: IV 0.1 μg kg body weight^−1, 3 h post injection, vs vehicle
Experimental: (§1) Immunoblot analysis of NaPi-2A and NaPi-2C protein abundance in renal cortex tissue and isolated brush border membrane vesicles (BBMV), and NaPi-2A immunostaining of renal tissue were performed as described (Bacic et al., “Activation of Dopamine Dl-like Receptors Induces Acute Internalization of the Renal Na^+/phosphate Cotransporter NaPi-IIa in Mouse Kidney and OK cells,” Am J Physiol Renal Physiol 288(4):F740-747 (2005), Loffing et al., “Renal Na/H Exchanger NHE-3 and Na—PO4 Cotransporter NaPi-2 Protein Expression in Glucocorticoid Excess and Deficient States,” J Am Soc Nephrol 9(9):1560-1567 (1998), Moe et al., “Dietary NaCl Modulates Na(+)-H+ Antiporter Activity in Renal Cortical Apical Membrane Vesicles,” Am J Physiol 260(1 Pt 2):F130-137 (1991), which are hereby incorporated by reference in their entirety).
(§2) For immunoblot, rat kidney cortices were dissected and homogenized, and BBMV were isolated (Loffing et al., “Renal Na/H Exchanger NHE-3 and Na—PO4 Cotransporter NaPi-2 Protein Expression in Glucocorticoid Excess and Deficient States,” J Am Soc Nephrol 9(9):1560-1567 (1998), Moe et al., “Dietary NaCl Modulates Na(+)-H+ Antiporter Activity in Renal Cortical Apical Membrane Vesicles. Am J Physiol 260(1 Pt 2):F130-137 (1991), which are hereby incorporated by reference in their entirety). […]

[3] = test system: NaPi-2C; assay: NaPi-2C protein abundance in apical brush border membrane of rat kidney; format: in vivo; conditions: IV 0.1 μg kg body weight^−1, 3 h post injection, vs vehicle
Experimental: as §1, §2

CSCC[C@H](NC(=O)[C@H](CCCNC(=N)N)NC(=O)[C@H](C)NC(=O)[C@H](CCCNC(=N)N)NC(=O)[C@@H]1CCCN1C(=O)[C@H](CCCCN)NC(=O)[C@H](CC(C)C)NC(=O)[C@@H](NC(=O)[C@H](CC(N)=O)NC(=O)[C@H](CC(C)C)NC(=O)[C@@H]1CCCN1C(=O)[C@H](CC(=O)O)NC(=O)[C@H](CCCNC(=N)N)NC(=O)[C@H](CCC(=O)O)NC(=O)[C@H](CO)NC(=O)[C@H](CC(=O)O)NC(=O)[C@H](CC(=O)O)NC(=O)[C@H](CCC(=O)O)NC(=O)[C@H](C)NC(=O)[C@@H](N)CO)C(C)C)C(=O)N[C@H](C(=O)N1CCC[C@H]1C(=O)N[C@@H](C)C(=O)N1CCC[C@H]1C(=O)N[C@@H](C)C(=O)N[C@@H](CO)C(=O)O)[C@@H](C)O [FGF23^180-205] (H-SAEDDSERDPLNVLKPRARMTPAPAS-OH; N-terminus and C-terminus assumed)
serum phosphate [1]: increase

B1: FGF23^180-251: 72-amino acid C-terminal tail of human FGF23 (S180 to I251), expressed in E. coli (protein, listed as Homo sapiens)
chain: SAEDDSERDPLNVLKPRARMTPAPASCSQELPSAEDNSPMASDPLGVVRGGRVNTHAGGTGPEGCRPFAKFI
NaPi-2A protein expression in the apical brush border membrane [2]: increased | NaPi-2C protein expression in the apical brush border membrane [3]: increased | renal phosphate excretion ([1]; IP 1 mg): decrease | serum phosphate [1]: elevated

B2: FGF23^28-251: human FGF23 (A28 to I251), bioactive full-length ligand expressed in E. coli (protein, listed as Homo sapiens)
chain: ASPLLGSSWGGLIHLYTATARNSYHLQIHKNGHVDGAPHQTIYSALMIRSEDAGFVVITGVMSRRYLCMDFRGNIFGSHYFDPENCRFQHQTLENGYDVYHSPQYHFLVSLGRAKRAFLPGMNPPPYSQFLSRRNEIPLIHFNTPIPRRHTRSAEDDSERDPLNVLKPRARMTPAPASCSQELPSAEDNSPMASDPLGVVRGGRVNTHAGGTGPEGCRPFAKFI
NaPi-2A protein expression in the apical brush border membrane [2]: decrease; also recorded: diminished | NaPi-2C protein expression in the apical brush border membrane [3]: diminished
